Assay [1] has as its target monoclonal antibody 23L-1Na. Nature of the assay: competitive EIA: unlabeled ligand varied against HRP-labeled [Cys^19-NH2] rat TGR23-2 ligand (1-19) for 23L-1Na (FIG. 5).
The target of assay [2] is monoclonal antibody 23L-2Ca. The experiment in a line: competitive EIA: unlabeled ligand varied against HRP-labeled [Cys^19-NH2] rat TGR23-2 ligand (1-19) for 23L-2Ca (FIG. 7).
Assay [3] concerns the target monoclonal antibody 23L-1Ca. Nature of the assay: competitive EIA: unlabeled ligand varied against HRP-labeled [Cys^19-NH2] rat TGR23-2 ligand (1-19) for 23L-1Ca (FIG. 6).

B1: human TGR23-2 ligand (peptide)
peptide: SFRNGVGTGMKKTSFQRAKS
With B1, in assay [1], the IC50 was determined as 60 nM.

B2: mouse TGR23-2 ligand (peptide)
peptide: SFRNGVGSGAKKTSFRRAKQ
As for B2, the IC50 in assay [2] came to 40 nM; in assay [1], 60 nM.

B3: rat TGR23-2 ligand (peptide)
peptide: SFRNGVGSGVKKTSFRRA
As to B3, the IC50 in assay [3] worked out at 20 nM; in assay [2], 20 nM; in assay [1], 100 nM.

In general, IC50 refers to the concentration at which inhibition is half-maximal.
